The results in this text go back to doi:10.1101/2025.08.03.668247, “The structure of Egalitarian in complex with the K10 mRNA localization signal reveals a modular binding surface required for function”.

Data set [1] has as its target T1, GST-Egl512-819 (Drosophila melanogaster, UniProt Q9W1K4 512-819).
T1 sequence: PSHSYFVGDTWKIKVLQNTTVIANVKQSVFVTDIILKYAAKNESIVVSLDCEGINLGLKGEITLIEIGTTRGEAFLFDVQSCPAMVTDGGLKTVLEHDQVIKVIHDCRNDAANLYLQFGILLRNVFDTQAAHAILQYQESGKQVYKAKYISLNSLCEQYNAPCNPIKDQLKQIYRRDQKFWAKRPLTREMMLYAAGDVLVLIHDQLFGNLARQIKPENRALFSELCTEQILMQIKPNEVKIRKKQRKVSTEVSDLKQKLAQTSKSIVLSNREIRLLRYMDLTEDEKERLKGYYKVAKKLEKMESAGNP
Kind of data set: competition; vs FAM-K10 TLS; FA: 20 mM HEPES-NaOH pH 7.5, 100 mM NaCl, 10% glycerol, 20 C, 10 nM FAM-RNA; competition: 150 nM Egl512-819 + 10 nM FAM-K10 TLS, same buffer. As to conditions: protein: recombinant, tags: N-terminal GST (TEV site).

Data set [2] deals with T1, GST-Egl512-819. The data set can be described thus: competition; vs FAM-K10 TLS; none at 40,000-fold excess; FA: 20 mM HEPES-NaOH pH 7.5, 100 mM NaCl, 10% glycerol, 20 C, 10 nM FAM-RNA; competition: 150 nM Egl512-819 + 10 nM FAM-K10 TLS, same buffer. As to conditions: protein: recombinant; tags: N-terminal GST (TEV site).
Data set [3] concerns the target T1, GST-Egl512-819. The data set can be described thus: fluorescence anisotropy; FA: 20 mM HEPES-NaOH pH 7.5, 100 mM NaCl, 10% glycerol, 20 C, 10 nM FAM-RNA; competition: 150 nM Egl512-819 + 10 nM FAM-K10 TLS, same buffer. As to conditions: protein: recombinant, tags: N-terminal GST (TEV site). (In general: Polarisation of emitted light reports the rotation of a fluorescent probe.)

Data set [4] deals with T1, GST-Egl512-819. Kind of data set: fluorescence anisotropy; listed as K10-10nt; FA: 20 mM HEPES-NaOH pH 7.5, 100 mM NaCl, 10% glycerol, 20 C, 10 nM FAM-RNA; competition: 150 nM Egl512-819 + 10 nM FAM-K10 TLS, same buffer. As to conditions: protein: recombinant; tags: N-terminal GST (TEV site); label: 5'-FAM in direct assay; hairpin, 3' overhang 10 nt.
Setting [5] is: label: 5'-FAM in direct assay, hairpin.

The IC50 is the concentration that gives 50% inhibition. As to CUUGAUUGUACUUUUUAAAUUAAUUCUUAAAAAUACAAAUUAAG (structured_RNA) [K10-b1as], in data set [1] (hairpin), the 50% inhibitory concentration (IC50) stood at 63 ± 1 nM.
For AUUGAUUGUACUUUUUAAAUUAAUUCUUAAAAAUACAAAUUAAU (structured_RNA) [K10-b1as-AU], in data set [1] (hairpin), the 50% inhibitory concentration (IC50) amounted to 87 ± 8 nM.
For the molecule AGGCAGTTTCTGGTACTCAG (ssDNA) [ssDNA], the binding result in data set [2] is recorded as “no binding”.
As for CUUGAUUGUAUUUUUAAAUUAAUUCUUAAAAACUACAAAUUAAG (structured_RNA) [K10 TLS (unlabeled)], the IC50 in data set [1] (hairpin with two bulges) is 53 ± 4 nM.
Turning to AUUGAUUGUAUUUUUAAAUUAAUUCUUAAAAACUACAAAUUAAU (structured_RNA) [K10-AU], the half-inhibitory concentration (IC50) in data set [1] (hairpin) worked out at 67 ± 4 nM.

B1: ARF1 dsRNA (dsRNA)
RNA 1: UGAGUGCCAGAAGCUGCCUC
RNA 2: GAGGCAGUUUCUGGUACUCA
As to B1, in data set [1] (blunt, with G-U wobbles), the IC50 stood at 102 ± 14 nM.

B2: bcd_VbS (structured_RNA)
RNA: AAAUGUUUCUCUUGGGCGUAAUCUCAUACAAUGAUUACCCUUAAAGAUCGAACAUUU
As a reminder, the Kd is the constant that tells how readily two partners part at equilibrium. Take B2: the Kd in data set [3] (label: 5'-FAM, hairpin) came out at 158 ± 8 nM.
As to GAAUUAAACAUCAAAAAUUCUUAAUUAAAUUUUUAUGUUAGUUC (structured_RNA) [K10-as], in data set [3] (setting [5]), the Kd came out at 102 ± 6 nM.
For ACAUGAGGAUUACCCAUGU (structured_RNA) [MS2 stem loop], in data set [1] (hairpin), the IC50 came out at 142 ± 13 nM.

B3: bcd_VbL (structured_RNA)
RNA: GGGCCCAAAAUGAAAAAUGUUUCUCUUGGGCGUAAUCUCAUACAAUGAUUACCCUUAAAGAUCGAACAUUUAAACAAUAAUAUUUGGG
In the case of B3, the dissociation constant Kd in data set [3] (setting [5]) was found to be 123 ± 13 nM. In addition, in data set [1] (setting [5]), the IC50 amounted to 31 ± 5 nM.

B4: K10-flank (K10-10nt) (structured_RNA)
RNA: CUUGAUUGUAUUUUUAAAUUAAUUCUUAAAAACUACAAAUUAAGAUCACUCUGU
In the case of B4, the IC50 in data set [1] (label: 5'-FAM in direct assay, hairpin, 3' overhang 10 nt) came to 53 ± 2 nM. In data set [4], the Kd was determined as 92 ± 13 nM.
In the case of GGCUUGAUUGUAUUUUUAAAUUAAUUCUUAAAAACUACAAAUUAAGCC (structured_RNA) [K10-2GC], in data set [1] (hairpin with two bulges), the half-maximal inhibitory concentration (IC50) was 57 ± 6 nM.
For the molecule CUUGAUUGUAUUUUUAAAUUAAUUCUUAAAAAUACAAUUAAG (structured_RNA) [K10-Delta b1b2], the Kd in data set [3] (setting [5]) was 172 ± 18 nM.
Consider AUAUAUAUAUAUAUAUAUAU (ssRNA) [ssRNA (AU20)], for which the equilibrium dissociation constant (Kd) in data set [3] (label: 5'-FAM) is 137 ± 8 nM.

B5: dsDNA (dsDNA)
DNA 1: AGGCAGTTTCTGGTACTCAG
DNA 2: CTGAGTACCAGAAACTGCCT
For the molecule B5, the half-maximal inhibitory concentration (IC50) in data set [1] (blunt) is 8890 ± 933 nM.

B6: dsRNA (dsRNA)
RNA 1: UGAGUGCCAGAAGCUGCCUC
RNA 2: GAGGCAGCUUCUGGCACUCA
On to B6, for which the dissociation constant Kd in data set [3] (blunt) was determined as 192 ± 7 nM.
Take UUUUUUUUUUUUUUUUUUUU (ssRNA) [ssRNA (U20)]: the dissociation constant (Kd) in data set [3] (label: 5'-FAM) worked out at 175 ± 3 nM.
